Reference: patent US9371519B2, “Complex type sugar chain hydrolase” (National Institute of Advanced Industrial Science and …, priority 2011, dated 2016)

Assay: Hydrolysis activity for various PA-labeled sugar chains (HPLC peak area ratio, relative to M8A)
Assay type: biochemical
Details: 1 μM substrate, pH 5.3, 30° C.
Method: (§1) Using the Endo-Om partially purified enzyme solution of the present invention, hydrolysis activity for various PA-labeled commercially available sugar chains (TaKaRa-Bio Inc.) were measured, and the results are shown in the following (Table 1) together with the measurements in a literature on Endo-M (Non Patent Literature 6). The hydrolysis activity at that time was calculated from the peak area ratio between the PA-labeled sugar chain and its hydrolysate as substrates in HPLC, and the relative activity for the various sugar chains was calculated, with the hydrolysis activity for the sugar chain with an M8A structure set at 100%.
as §1, with “Endo-Cp” for “Endo-Om”, “2)” for “1)”
as §1, with “Endo-Pa” for “Endo-Om”, “3)” for “1)”
as §1, with “Endo-Zr” for “Endo-Om”, “4)” for “1)”
Comparison of hydrolysis activity for PA-labeled sugar chains having various structures was carried out as follows. A reaction solution containing a sodium acetate buffer at final concentration of 100 mM (pH 5.3), 0.5 M of NaCl, 1 μM of any of various PA-labeled sugar chains (TaKaRa-Bio Inc.), and an Endo-Om purified enzyme solution (total volume: 10 μl) was incubated at 30° C. for 3 to 12 hours, and heated at 95° C. for 5 minutes thereby stopping the enzyme reaction. The reaction solution was subjected to HPLC, and enzymatic activity was calculated from the peak area ratio between the PA-labeled sugar chain as the substrate and its hydrolysate. The column used herein was Cosmosil 5C18-ARII (2.0.150 mm, Nacalai Tesque, Inc.), the solvents were a 0.1 M ammonium acetate buffer (pH 4.0: solvent A), a 0.1 M ammonium acetate buffer (pH 4.0), and 0.5% 1-butanol (solvent B). Linear gradient elution was carried out using the solvent B: 5%-50% at a flow rate of 0.5 ml/min over a period of 24 minutes, and detection was carried out using a fluorescence detector (excitation wavelength 320 nm, and fluorescence wavelength 400 nm). The enzymatic activity was calculated with the activity hydrolyzing 1 μmol of the PA-labeled sugar chain in 1 minute under the above-described reaction conditions as 1 Unit, and the relative activity for various sugar chains were calculated with the hydrolysis activity for the sugar chain having an M8A structure as 100%. […]

[1] = substrate drawing 1/drawing 14/drawing 27/drawing 40 (M3B structure), M8A = 100%
[2] = substrate drawing 2/drawing 15/drawing 28/drawing 41 (M5A structure per text), M8A = 100%
[3] = substrate drawing 4/drawing 17/drawing 30/drawing 43 (high-mannose type M8A-PA sugar chain, set at 100%)
[4] = substrate drawing 5/drawing 18/drawing 31/drawing 44 (M9A structure per text), M8A = 100%
[5] = substrate drawing 7/drawing 20/drawing 33/drawing 46, M8A = 100%
[6] = substrate drawing 8/drawing 21/drawing 34/drawing 47, M8A = 100%
[7] = substrate drawing 9/drawing 22/drawing 35/drawing 48, M8A = 100%
[8] = substrate drawing 6/drawing 19/drawing 32/drawing 45, M8A = 100%

| Molecule | Relative activity (hydrolysis activity for PA-labeled sugar chain) [1] | Relative activity (hydrolysis activity for PA-labeled sugar chain) [2] | Relative activity (hydrolysis activity for PA-labeled sugar chain) [3] | Relative activity (hydrolysis activity for PA-labeled sugar chain) [4] | Relative activity (hydrolysis activity for PA-labeled sugar chain) [5] | Relative activity (hydrolysis activity for PA-labeled sugar chain) [6] | Relative activity (hydrolysis activity for PA-labeled sugar chain) [7] | Relative activity (hydrolysis activity for PA-labeled sugar chain) [8] |
| --- | --- | --- | --- | --- | --- | --- | --- | --- |
| Endo-Zr: endo-β-N-acetylglucosaminidase from Zygosaccharomyces rouxii ATCC2623, amino acid sequence SEQ ID NO. 13, 639 amino acids (protein, listed as Zygosaccharomyces rouxii) MKRINQVPGKPEITSLYFDDLNSLQRWFDKGFMDSRDLSNVPKERYSNYVKFEKDSIITIPNLSARKTEIIVCHDFKGGYQSGHDLYPNGQYGTESCKPYSLRYPEIVDKFVYFSHHCVTIPPSPWTNYLHRHSIPVLGTLILEHYPHNGELFKKNAKGEFLYVKYLVELCRKFHFEGWLINFETVFGNNSKQVIPFLRELTARVECEIYGGSVIWYDAFTTFSNKPSHQNEVNLFNYDAYENSSQFMTNYMWDSHNVGNSLRNVGALGMHSHVALGVDVWGRNMQVCRGGFESNIAIYYAKRFGTNAVIFAPGWTYENFGEDQFYEKDDIFWGNIKSTLQLDSYSDSQLSSWFVSESKKTRYFTTFFSTGSGNFFNLNGRRISNDNWVQLGLSTPFPVNSHSYLSFKDSFVGGSCLALPLSPMENGKLHLFRFEQFIKDQQKTSDSEIRVKLSYKSLGALPPVKLVIKCFVIRRGKRSKTILKVDDVSLVLPLSHSACQTAQGSTKWAVVEQIVPLPSLESRFLEEYYVEDAHLEWTMDNNHDEWLMVPERTEDLDCKLLIGSLCLEIGPHEDNNKRQIVRNGPQLSWQDNESSFMWLKLQDGKLDSVLFTPTTKVNGKQPTILECGRNGTLKFVVKK | 85.7% | 39.8% | 100% | 33.4% | 13.2% | 17.3% | 30.0% |  |
| Endo-Pa: endo-β-N-acetylglucosaminidase from Pichia anomala ATCC36904, amino acid sequence SEQ ID NO. 9, 656 amino acids (protein, listed as Pichia anomala) MQHDHAAIKFEEDSISSQRFSSLDEVEKWYNTKNRSPLDDLRIPRESLSHYNRFRDNNDEIKVLVCHDFKGNYQEGEDENPLGYFPHSSGQHYFIQFPSLVDLFIFFSHYKIAVPPVSWINSLHRQGIPVLGTLIFEGTDVSESDKLLEKNENGDFKYLEILCELVRHYGFDGWLVNMESHFSSVAKAQDLLLFDEALRSTLHLKVPGSKLIWYDSLITQKNRVFYQNAVNEWNYDHFSTSDLFFTNYWWNEEDLKRNILNIGLQGVKQKLFVGVDIWGRGSRIGNGGFESGLAINYLKRYSTNVALFAPAWTYENFEEDQFLIKDRKFWIGDQTSDETGGSVATYVSHYTTPVYVKDQNVKFYTNFSVGEGTKYRVFAHTVFKNNWVNGNLQLPTPIIDNEKRIDIYYKESFNGGSSLKVTQRNSILNDGKSNILQLFSFKNDIHSNNLNVSVSFKYLSEIPLNSTFQLEIKFYIERRYRSVTRVRDGTFKLPLAFSNKNWKYIETSFALPRLQIREHFVLEGLQIRWVDNVDELSSSIGTSGDFTESWIIVPQNSDPNAVYELLIGDLLVEGIKTANGNIDAVTKLSRKITLDSRSILATWKDDTEVLYWIIYVNAKFLGIAHKSLWRVQRGDKLRVDVFTRSGKLVKGEDIFI | 152% | 94.3% | 100% | 115% | 35.4% | 36.3% | 40.5% | 4.0% |
| Endo-Om: endo-β-N-acetylglucosaminidase from methylotrophic yeast Ogataea minuta IFO10746, amino acid sequence SEQ ID NO. 1, 772 amino acids (protein, listed as Ogataea minuta) MAQSQLLGGAVRPVFFDKLEELRRWHTQSANLSRESELDSLNVATEPFSSYERAQTGSGSRSSEPVPGDKEDPPIKLMVCHDFKGGYQDYEDAQPLGYFPHPTGSRYFLQYPQLIDQFVYFSHHRVTVPPVNWINFCHRNGIKCFGTVIFEGNASKDFEELDRLVSRDEKGDFVFVDALIKLAAHYGFDGYLLNIETTFSNTKIAADLEPFAEQLKSGLHCLDSKNELIWYDSYVFPANKVSYTNGVTESNYNFFSLSDAFFSNYWWNIKNLQENIKNVGVLGVQKKIYVGYDVWGRGTLVGKGGFDSSLACKMIAKFKSNVALFAPAWTYESLGPKDFNQNDARFWIGLFENESSISSTVPPHSSAVYKINESSFIFYTNFSSGEGNRFFSKGSEVYRKNWVNGSLQFDLPIDLHRKDKNGLQWALDKSDAFHGGACLEIKYSEIKDENGYQIFNNQMVSDFTLFNFTKECHFPTVNVKVTYKLNHKTKSTFKIKIKYIIERRFRSVQTVRTGYLTIPLLSTSGKWFTVEESFQINLQTSHEYIVLESAHVTYDEDRSADSFFRSYIVEDSAITSVIDNEEYEKLINSEIYNDDEDEDWILVPSDVSISSSESQSNDSKTQYLGRKLFGNKSTPKTRTLEGTAPLLRIGEFAIISANNYPSSNFLAVTSVKSIESSRLEGDSLVLLNWQVGEGHQKGVCYYIIYVNGAVVGLSVAPKFIYQDTELASENSASARSNYKKSGLGSSSDRKSKVRVDSVDKLGNVFTGSEVWV | 55.9% | 13.7% | 100% | 81.3% | 5.9% | 1.6% | 4.6% | 0.8% |
| Endo-Cp: endo-β-N-acetylglucosaminidase from Candida parapolymorpha DL-1 ATCC26012, amino acid sequence SEQ ID NO. 5, 745 amino acids (protein, listed as Candida parapolymorpha) MPRNTAKHSSLPQTNLPLSSLESSFFDSLDELANWERRIHEKSFELDELNKPTEKLAHYTRARQQSTSEDVKLLVCHDLKGGYQVNEDEDPLGYFPHPDGQHYFLQYPQLVDKFVYFSHHRVSIPPVSWINVCHRNAIKCLGTVIFEGNTYRDFEEADKLLTKQDGEYVFVRCLVALVEYFQFDGYLFNIETRFSNTRIASLLEPFLEQLRAELHVRNPSTELIWYDSYIYPENRVLYKNGVTEANYNFFSCCDSFFTNYWWNVKHLQDNIKNVGVLGSRLKVYAGYDVWGRGTMIGKGGYDSALACQMIKKYRSNVALFAPAWTYEYLARKDFTQNDTRFWIGLFDGESSMATTFKPYSSPLYKINDSNFVFYTNFGSGEGCAFYECGEKVYRDNWVNGSLQMEIPYAIHTRNKNGIQWTLSKEDSFHGGSCVEIKYNEVVDDKGYQVFNNQTINSFSLFSFVQDCSFPTVNVKLTYKLNHKTKSFFKLKIGYYIERRYRTVQKVRSGCLVVPLLSTNDQWFTIEEPFHVSLQNSHEFIVLDSATIFYEETEDPFMRAHVVEDQSTSSVIDNEEYEKLMNSEIYFDDEDEDWILVPSDISMESTDNGGRENHTWKVISNQIRKKHPKSHPSTSPVLKLGELAIINANDYPSDSFFKLMPVNSIDVRRWEGKILLIWKTNQDSVLYHLIFVDDVFQGISLVSKFVFEDQAVDEKSFKTKSGGSTKVRIDTVNRLGILVKGTDM | 37.3% | 15.1% | 100% | 21.6% | 4.7% | 1.1% | 3.1% | 0.4% |
